In test [1] the target is Aβ(1-42) fibril (human). The experiment in a line: dot blot, antigen dilution series on nitrocellulose, antibody 0.2 µg/ml, densitometry.
Test [2] concerns the target Aβ(1-42) globulomer (human). Described as above.
Test [3] deals with sAPPα (UniProt P05067). The experiment in a line: dot blot, antigen dilution series on nitrocellulose (first dot 1 pmol), antibody 0.2 µg/ml, densitometry.

Chain of Aβ(1-42) globulomer (human) (peptide, as listed by the source): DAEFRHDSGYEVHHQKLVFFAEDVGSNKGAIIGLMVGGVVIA
Chain of Aβ(1-42) fibril (human) (peptide, as listed by the source): as above

B1: humanized monoclonal anti-Aβ antibody 4D10hum#1 (antibody, human IgG1, kappa, V domains shown)
VH: EVQLVESGGGLVQPGGSLRLSCAVSGFTLSSYGVHWVRQAPGKGLEWLGVIWRGGRIDYNAAFMSRLTISKDNSKSTVYLQMNSLRAEDTAVYYCARNSDVWGQGTTVTVSS
VL: DVVMTQTPLSLPVTPGQPASISCKSSQSLLDIDGKTYLNWLLQKPGQSPQRLIYLVSKLDSGVPDRFSGSGSGTDFTLKISRVEAEDVGVYYCWQGTHFPYTFGQGTKLEIKR
As for B1, the results for the dot blot quantification (relation between recognition of Aβ(20-42) globulomer and the respective Aβ form) in test [1], in test [2] and in test [3] were greater than 10000, greater than 10000 and greater than 100, respectively.

The values above are taken from US20150218261A1.
